Experimental data taken from patent US20110274691A1 (Amgen, published 2011).
Where a chain is given by its changes, count along the chain named.

How the values were obtained:
[1] = target: T1, ferroportin peptide Fc conjugate 5 (Peptide 5: AQNTLGNKLFACGPDAKEVRKENQANTSVV, amino acids 542-571 of SEQ ID … (human)); assay: Western blot of peptide-Fc conjugates
T1 construct: not shown: Fc moiety
T1 chain: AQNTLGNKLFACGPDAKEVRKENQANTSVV
Procedure: (§1) 31A5 was then tested by Western analysis for its ability to recognize a panel of ferroportin peptide-Fc conjugates, where the peptide moiety was derived from different, non-overlapping regions of the ferroportin sequence. 500 ng of ferroportin peptide Fc conjugates 1-5 (Peptide 1: […], amino acids 75-96 of SEQ ID NO: 16; Peptide 2: […], amino acids 152-183 of SEQ ID NO: 16; Peptide 3: […], amino acids 330-338 of SEQ ID NO: 16; Peptide 4: […], amino acids 393-446 of SEQ ID NO: 16; and Peptide 5: […], amino acids: 542-571 of SEQ ID NO: 16) were run on a NuPAGE 4-12% gel, transferred to a nitrocellulose membrane and probed using […] 31A5 followed by an anti-mouse secondary antibody.

[2] = target: T2, ferroportin peptide Fc conjugate 2 (Peptide 2: ITIQRDWIVVVAGEDRSKLANMNATIRRIDQL, amino acids 152-183 of SEQ … (human)); assay: Western blot of peptide-Fc conjugates
T2 construct: not shown: Fc moiety
T2 chain: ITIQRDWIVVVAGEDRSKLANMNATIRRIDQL
Procedure: as §1

human ferroportin = target: T3, human ferroportin (human, UniProt Q9NP59 1-571); assay: cell-based or functional assay
T3 sequence: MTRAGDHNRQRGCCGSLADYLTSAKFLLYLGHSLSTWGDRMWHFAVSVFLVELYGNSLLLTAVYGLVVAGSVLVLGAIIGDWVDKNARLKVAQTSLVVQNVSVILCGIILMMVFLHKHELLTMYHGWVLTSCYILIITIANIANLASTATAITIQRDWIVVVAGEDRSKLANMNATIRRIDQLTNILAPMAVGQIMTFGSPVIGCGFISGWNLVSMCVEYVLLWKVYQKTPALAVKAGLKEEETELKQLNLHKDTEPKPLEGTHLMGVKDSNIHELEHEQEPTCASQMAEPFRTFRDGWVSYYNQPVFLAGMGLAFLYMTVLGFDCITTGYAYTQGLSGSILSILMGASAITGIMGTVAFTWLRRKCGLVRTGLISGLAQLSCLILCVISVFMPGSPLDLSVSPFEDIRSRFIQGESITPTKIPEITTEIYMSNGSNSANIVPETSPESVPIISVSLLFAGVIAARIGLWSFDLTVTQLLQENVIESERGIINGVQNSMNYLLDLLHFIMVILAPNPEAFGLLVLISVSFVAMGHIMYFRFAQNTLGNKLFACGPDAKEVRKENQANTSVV

[3] = target: T4, ferroportin peptide sequence ANIVPETSPES (residues 439-449 of SEQ ID NO: 16) (human); assay: binding to 7-10 amino acid peptides immobilized on cellulose membrane
T4 peptide: ANIVPETSPES
Text: None of the other ferroportin-binding antibodies bound appreciably to this peptide. The location of the 31A5 epitope was further narrowed by detecting binding to ferroportin peptides ranging in length from 7 to 10 amino acids immobilized on a cellulose membrane. […] Cysteine residue 326 of SEQ ID NO: 16 is located in a different extracellular loop from the loop containing the 31A5 epitope (i.e., loop 3 of FIG. 1A).

[4] = target: T5, ferroportin fragment RDGWVSYYNQ (amino acids 296-305 of SEQ ID NO: 16) (human); assay: PepSpot peptide array, 1 ug/mL antibody
T5 construct: PepSpot array of overlapping 10-mers on cellulose membrane
T5 peptide: RDGWVSYYNQ
Text: (§2) The PepSpot technique (Heiskanen et al., Virology, 262:321-332, 1999) was used to identify the binding epitopes on ferroportin for human antibodies 37A2, 37B9, 37C8, 37G8, 38A4, 38C8, 38D2, 38E3 and 38G6. Briefly, an array of overlapping 10-mer peptides was synthesized on a cellulose membrane by a solid phase peptide synthesis spotting method. These peptide sequences were derived from amino acids 1-571 of SEQ ID NO: 16. The array was then soaked in 0.05% Tween-20/PBS (PBS-T), blocked with 5% BSA in PBS-T for 3 hours at room temperature and subsequently washed three times with PBS-T. The prepared array was then incubated for 90 minutes at room temperature with 1 μg/mL solution of antibodies 37A2, 37B9, 37C8, 37G8, 38A4, 38C8, 38D2, 38E3 or 38G6 in 5% nonfat dry milk. After binding, the membrane was washed three times with PBS-T and subsequently incubated for 1 hour at room temperature with a goat anti-human light chain antibody conjugated to horseradish peroxidase diluted 1:50,000 in 5% nonfat dry milk. The membrane was then washed three times with PBS-T and any binding was determined using chemiluminescence detection on X-ray film.
(§3) Antibodies 37A2, 37B9, 37C8, 37G8, 38A4, 38C8, 38D2, 38E3 and 38G6 bound to epitopes within, overlapping or near loops 1, 2, 3 and 4 of the ferroportin sequence set forth in FIG. 1A.

[5] = target: T6, ferroportin fragment YHGWVLTSCY (amino acids 124-133 of SEQ ID NO: 16) (human); assay: PepSpot peptide array, 1 ug/mL antibody
T6 construct: PepSpot array of overlapping 10-mers on cellulose membrane
T6 peptide: YHGWVLTSCY
Text: as §2, §3

ferroportin-V5 = target: T7, ferroportin-V5 (human, UniProt Q9NP59 1-571); assay: cell-based or functional assay
T7 sequence: T3 sequence

[6] = target: T8, ferroportin fragment AFLYMTVLGF (amino acids 315-324 of SEQ ID NO: 16) (human); assay: PepSpot peptide array, 1 ug/mL antibody
T8 construct: PepSpot array of overlapping 10-mers on cellulose membrane
T8 peptide: AFLYMTVLGF
Text: as §2, §3

[7] = target: T9, ferroportin fragment ITTEIYMSNGSNS (amino acids 426-438 of SEQ ID NO: 16) (human); assay: PepSpot peptide array, 1 ug/mL antibody
T9 construct: Stretch covered by several overlapping 10-mers of the PepSpot array; 13 residues as printed
T9 peptide: ITTEIYMSNGSNS
Text: as §2, §3

[8] = target: T10, ferroportin fragment TEIYMSNGSNSA (amino acids 428-439 of SEQ ID NO: 16) (human); assay: PepSpot peptide array, 1 ug/mL antibody
T10 construct: Stretch covered by several overlapping 10-mers of the PepSpot array; 12 residues as printed
T10 peptide: TEIYMSNGSNSA
Text: as §2, §3

[9] = target: T11, ferroportin fragment SITPTKIPEI (amino acids 417-426 of SEQ ID NO: 16) (human); assay: PepSpot peptide array, 1 ug/mL antibody
T11 construct: PepSpot array of overlapping 10-mers on cellulose membrane
T11 peptide: SITPTKIPEI
Text: as §2, §3

B1: anti-ferroportin antibody 31A5 (antibody, V domains shown)
VH: QVQLQQSGAELARPGASVKLSCKASGYTFTSYGISWVKQRTGQGLEWIGEIYPRSGNAYYNEKFKVKATLTIDKSSSTAYMELRSLTSEDSAVYFCGGNYYWGQGTTLTVSS
VL: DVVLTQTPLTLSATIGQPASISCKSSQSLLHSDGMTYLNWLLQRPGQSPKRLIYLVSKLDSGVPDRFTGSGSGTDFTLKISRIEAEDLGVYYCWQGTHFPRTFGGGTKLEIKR
notes: the ends of the mature chains (466, 239) are printed in CLM-00028; also called monoclonal 31A5; mouse anti-human ferroportin antibody
binding result [1]: no binding | binding result [2]: no binding | decreased intracellular concentration of iron (IRE beta-lactamase reporter, 293/Fpn/BLA cells, 36 nM hepcidin), IC50 (human ferroportin): 30 nM | binding result [3]: binds

B2: antibody 38D2 (antibody, V domains shown)
VH: QVQLVQSGAEVKKPGASVKVSCKASGYTLTGYYLHWVRQAPGQELEWMGWINPFTGATDYAQKFQGRVTMTRDTSINTAHMELSRLRSDDTAVYYCARDPSLQNSYHYYVMDVWGQGTTVTVSS
VL: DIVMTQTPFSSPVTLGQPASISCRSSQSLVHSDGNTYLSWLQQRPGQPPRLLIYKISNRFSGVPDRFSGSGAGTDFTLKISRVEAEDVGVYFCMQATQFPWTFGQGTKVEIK
binding result [4]: binds | binding result [5]: binds | preserved ferroportin activity (ferroportin-V5 fluorescence after 37 nM hepcidin), IC50 (ferroportin-V5): 5.4 nM | decreased intracellular concentration of iron (IRE beta-lactamase reporter, 293/Fpn/BLA cells, 36 nM hepcidin), IC50 (human ferroportin): 10 nM

B3: antibody 38E3 (antibody, V domains shown)
VH: QVQLVQSGAEVKKPGSSVKVSCKASGYTLTGYYMHWVRQAPGQGLEWMGWINPHTGGKNYAQKFQGRVTLTRDTSISTAYMELNSLRSDDTAVYYCARDPSLSVTGPSFYYYGLDVWGQGTTVTVSS
VL: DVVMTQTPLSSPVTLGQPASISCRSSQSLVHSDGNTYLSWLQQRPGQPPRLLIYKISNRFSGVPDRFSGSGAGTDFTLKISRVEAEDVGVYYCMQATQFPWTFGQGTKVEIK
binding result [6]: binds | decreased intracellular concentration of iron (IRE beta-lactamase reporter, 293/Fpn/BLA cells, 36 nM hepcidin), IC50 (human ferroportin): 15 nM

B4: antibody 38C8 (antibody, V domains shown)
VH: B3 VH with A61G, S77N, L102I, T105A, Y112F
VL: not shown
binding result [6]: binds | preserved ferroportin activity (ferroportin-V5 fluorescence after 37 nM hepcidin), IC50 (ferroportin-V5): 0.3 nM | decreased intracellular concentration of iron (IRE beta-lactamase reporter, 293/Fpn/BLA cells, 36 nM hepcidin), IC50 (human ferroportin): 0.9 nM

B5: antibody 37C8 (antibody, V domains shown)
VH: B3 VH with S77N, S85T, L102I, S103A, T105A
VL: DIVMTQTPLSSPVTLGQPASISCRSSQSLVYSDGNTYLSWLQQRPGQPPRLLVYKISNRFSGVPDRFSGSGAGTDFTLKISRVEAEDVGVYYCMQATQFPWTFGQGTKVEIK
binding result [6]: binds | preserved ferroportin activity (ferroportin-V5 fluorescence after 37 nM hepcidin), IC50 (ferroportin-V5): 0.2 nM | decreased intracellular concentration of iron (IRE beta-lactamase reporter, 293/Fpn/BLA cells, 36 nM hepcidin), IC50 (human ferroportin): 0.8 nM

B6: antibody 37G8 (antibody, V domains shown)
VH: B3 VH with S77N, S85T, S103V
VL: DIVMTQTPLSSPVTHGQPASISCRSSQSLVHSDGNTYLSWLQQRPGQPPRLLIYKISNRLSGVPDRFSGSGTGTDFTLKISRVEAEDVGVYVCMQATQFPWTFGQGTKVEIK
binding result [6]: binds | preserved ferroportin activity (ferroportin-V5 fluorescence after 37 nM hepcidin), IC50 (ferroportin-V5): 0.8 nM | decreased intracellular concentration of iron (IRE beta-lactamase reporter, 293/Fpn/BLA cells, 36 nM hepcidin), IC50 (human ferroportin): 1.6 nM

B7: antibody 37B9 (antibody, V domains shown)
VH: B3 VH with K63R, I76V, S77N, S85T, S103V
VL: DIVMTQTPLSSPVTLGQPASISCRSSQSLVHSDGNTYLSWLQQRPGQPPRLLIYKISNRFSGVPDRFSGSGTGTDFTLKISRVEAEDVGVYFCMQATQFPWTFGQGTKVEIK
binding result [6]: binds | preserved ferroportin activity (ferroportin-V5 fluorescence after 37 nM hepcidin), IC50 (ferroportin-V5): 0.2 nM | decreased intracellular concentration of iron (IRE beta-lactamase reporter, 293/Fpn/BLA cells, 36 nM hepcidin), IC50 (human ferroportin): 3.6 nM

B8: antibody 38A4 (antibody, V domains shown)
VH: EVQLLESGGGLVQPGGSLRLSCAASGFTFSSFAMTWVRQAPGKGLEWVSAIGGSGRNTYYADSVKGRFTISRDNSKNTLYLQMSSLRAEDTAVYYCAKEGAMARPPRGLDVWGQGTTVTVSS
VL: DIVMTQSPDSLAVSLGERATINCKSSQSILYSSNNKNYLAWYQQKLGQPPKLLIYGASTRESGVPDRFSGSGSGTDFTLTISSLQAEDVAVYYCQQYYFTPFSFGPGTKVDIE
binding result [7]: binds | preserved ferroportin activity (ferroportin-V5 fluorescence after 37 nM hepcidin), IC50 (ferroportin-V5): 2.8 nM | decreased intracellular concentration of iron (IRE beta-lactamase reporter, 293/Fpn/BLA cells, 36 nM hepcidin), IC50 (human ferroportin): 0.4 nM

B9: antibody 38G6 (antibody, V domains shown)
VH: EVQVVESGGGLVQPGGSLRLSCAASGFTFSSYSVNWVRQAPGKGLEWVSYISGSSSTVHYADSVKGRFTISRDTAKNSVYLQLNSLRDEDTALYYCARWGTRQGHYFGMDVWGQGTTVTVSS
VL: QPVLTQPPSASASLGASVTLTCTLSSGYNNYKVDWFQQRPGRGPRFVMRVGTGGIVGSKGDGIPDRFSVLGSGLNRYLTIKNIQEEDESDYHCGADHASGNNFVYVFGTGTKVTVL
binding result [8]: binds | preserved ferroportin activity (ferroportin-V5 fluorescence after 37 nM hepcidin), IC50 (ferroportin-V5): 1.9 nM | decreased intracellular concentration of iron (IRE beta-lactamase reporter, 293/Fpn/BLA cells, 36 nM hepcidin), IC50 (human ferroportin): 4.3 nM

B10: antibody 37A2 (antibody, V domains shown)
VH: QVQLVESGGGVVQPGRSLRLSCAASGFTFSGYGMHWVRQAPGRGLEWVAVIWPDGTNKYYADSVKGRFTISRDNSKNKLYLQMNSLRAEDTAVYYCARGGATAVFGMNVWGQGTTVTVSS
VL: SYELTQPPSVSVSPGQTARITCSGDELPKQYAYWYQQKAGQAPVMVIHKDSERPSGIPERFSGSSAGTIVTLTISGVQAEDEADYYCQSPDSRRTVIFGGGTKLTVL
binding result [9]: binds | preserved ferroportin activity (ferroportin-V5 fluorescence after 37 nM hepcidin), IC50 (ferroportin-V5): 2.5 nM | decreased intracellular concentration of iron (IRE beta-lactamase reporter, 293/Fpn/BLA cells, 36 nM hepcidin), IC50 (human ferroportin): 4.5 nM
